Assay [1] concerns the target T1, TrkA protein on HEK-293T-TrkA cells or NIH-3T3-TrkA cells (human, UniProt P04629 33-796).
T1 construct: whole, on cells; Printed only as TrkA for these cells; also called TrkA protein on the membrane of NIH-3T3-TrkA cells
As to the kind of experiment: flow cytometry, antibody titrated on HEK-293T-TrKA cells, Parent %. The text has this: (§1) In FIG. 7, the EC₅₀ (half-binding concentration) value reflects the affinity of the antibody. The smaller the EC₅₀ value, the higher the affinity of the antibody.
(In general: Flow cytometry measures light scatter and fluorescence of single cells or particles in a stream.)

The target in assay [2] is T2, TrKA receptor protein coated in ELISA (Examples 11 and 16) (human, UniProt P04629 33-423, limits assumed).
T2 construct: also called Human-TrKA
Briefly: ELISA plateau, antibody up to 20 µg/mL on TrKA. On the procedure:
The TrkA receptor family belongs to receptor tyrosine kinases (RTKs), including TrkA, TrkB, and TrkC, which have high homology. TrkA is a receptor tyrosine kinase of nerve growth factor (NGF) that selectively binds to NGF and is a functional receptor for NGF. In addition to the high-affinity receptor TrkA, NGF can also bind to its low-affinity receptor p75. In the test, the binding of test antibodies at different concentrations (20 μg/mL, 10 μg/mL, 5 μg/mL, 2.5 μg/mL, 1.25 μg/mL, 0.625 μg/mL, 0.313 μg/mL, 0.156 μg/mL, 0.078 μg/mL, 0.039 μg/mL, 0.019 μg/mL) to TrKA, TrKB, TrKC, and P75 respectively was detected by the ELISA method, and the specificity of the test antibody binding to the target TrKA was evaluated. In the FIG. 8, at a certain antibody concentration, the OD₄₅₀ value reflects the binding strength of the antibody to the protein. The larger the reading, the stronger the binding of the antibody to the protein. […] It can be seen that the specificity of the binding of the test antibodies to the target TrKA is very good.

Assay [3] concerns the target T1, TrkA protein on HEK-293T-TrkA cells or …. As to the kind of experiment: cell-based or functional assay.
Assay [4] has as its target T3, TRKA protein with a histidine tag (human, UniProt P04629 33-423, limits assumed).
T3 construct: it is put last here only for order; also called TRKA (50 µg/ml, 75 kDa, provided by HEC Labs); not shown: histidine tag
As to the kind of experiment: BLI (Fortebio Octet RED96), His-tagged TRKA on Ni-NTA sensor, antibody 80-2.93 nM. The procedure: They were added to each well of the sample plate. […] The KD value is the equilibrium dissociation constant between the antibody and its antigen, and the KD value is inversely proportional to the affinity. The KD value is related to the antibody concentration (the amount of antibody required for a particular experiment). The lower the KD value (the lower the concentration), the higher the affinity of the antibody. High-affinity antibodies are generally considered to be in the low nanomolar range (10⁻⁹).
On the technique in general: BLI is a label-free optical method that tracks binding on a fibre tip over time.

The target of assay [5] is T1, TrkA protein on HEK-293T-TrkA cells or …. Briefly: flow cytometry on HEK-293T-TrKA cells.
Excerpt: as §1

Assay [6] deals with T2, TrKA receptor protein coated in ELISA …. Briefly: competition ELISA: antibody titrated against biotinylated NGF binding to TrkA, OD450. (In general: An ELISA detects its analyte on a solid surface through an enzyme-linked reagent.)
For assay [7], the target named is T1, TrkA protein on HEK-293T-TrkA cells or …. Briefly: flow cytometry competition: antibody titrated against biotinylated NGF binding to HEK-293T-TrkA cells, % parent.
Assay [8] addresses T4, Mouse-TrKA receptor on the surface of HEK293T-Mouse-TrKA cells (mouse, UniProt Q3UFB7 34-799).
T4 construct: whole, on cells; also called Mouse-TrkA protein on HEK293T-Mouse-TrkA cells
Briefly: flow cytometry on HEK293T-Mouse-TrKA cells. On the procedure:
The test antibody 23E12 samples were diluted with PBS buffer to 11 concentration gradients (20 μg/mL, 10 μg/mL, 5 μg/mL, 2.5 μg/mL, 1.25 μg/mL, 0.625 μg/mL, 0.313 μg/mL, 0.156 μg/mL, 0.078 μg/mL, 0.039 μg/mL, 0.019 μg/mL), and the binding of the test antibody to the Mouse-TrKA receptor on the surface of HEK293T-Mouse-TrKA cells at each concentration gradient was detected by flow cytometry. The binding ability of the antibody to Mouse-TrKA protein was tested. In FIG. 10, the EC₅₀ (half the binding concentration) value reflects the binding capacity of the antibody. The smaller the EC₅₀ value, the stronger the binding capacity of the antibody. […] It can be seen that the test antibody 23E12 has a good binding ability with the Mouse-TrKA receptor on the surface of HEK293T-Mouse-TrKA cells.

Assay [9] concerns the target T5, Mouse-TrKA protein (mouse, UniProt Q3UFB7 34-420, limits assumed).
T5 construct: also called Mouse-TrKA receptor
As to the kind of experiment: ELISA, antibody titrated on Mouse-TrKA protein, OD 450. The procedure: Test antibody (23E12, 21E5) samples were diluted with PBS buffer solution to 11 concentration gradients (20 μg/mL, 10 μg/mL, 5 μg/mL, 2.5 μg/mL, 1.25 μg/mL, […], 0.313 μg/mL, 0.156 μg/mL, 0.078 μg/mL, 0.039 μg/mL, 0.019 μg/mL). The binding of the test antibody to the Mouse-TrKA receptor at each concentration gradient was detected by the ELISA method, thus the binding ability of the test antibody to the Mouse-TrKA protein was detected. In FIG. 9, at a certain antibody concentration, the OD₄₅₀ value reflects the binding strength of the antibody to the protein. The larger the reading, the stronger the binding of the antibody to the protein. […] It can be seen that the test antibodies 23E12, 21E5, and Mouse-TrKA protein all have good binding ability.

Assay [10] deals with T4, Mouse-TrKA receptor on the surface of …. As to the kind of experiment: flow cytometry competition on HEK293T-Mouse-TrkA cells; competitor biotinylated Mouse-NGF. On the procedure:
Mouse-NGF was biotinylated. Mouse-NGF could bind to the extracellular region of Mouse-TrkA protein on HEK293 T-Mouse-TrkA cells, and anti-Mouse-TrkA monoclonal antibody could also bind to the extracellular region of Mouse-TrkA protein on HEK293T-Mouse-TrkA cells. A competitive experiment was designed to detect the binding of Mouse-NGF to the extracellular region of Mouse-TrkA protein on HEK293T-Mouse-TrkA cells under different concentrations (20 μg/mL, 10 μg/mL, 5 μg/mL, 2.5 μg/mL, 1.25 μg/mL, 0.625 μg/mL, 0.313 μg/mL, 0.156 μg/mL, 0.078 μg/mL, 0.039 μg/mL, 0.019 μg/mL) of test antibodies by flow cytometry, thus the inhibition effect of test antibodies on the binding of Mouse-NGF and Mouse-TrKA was investigated. In FIG. 12, the parent % value reflects the Mouse-NGF signal that binds to the extracellular region of the Mouse-TrKA protein on the HEK293T-Mouse-TrkA cell.

T1 sequence (P04629 33-796): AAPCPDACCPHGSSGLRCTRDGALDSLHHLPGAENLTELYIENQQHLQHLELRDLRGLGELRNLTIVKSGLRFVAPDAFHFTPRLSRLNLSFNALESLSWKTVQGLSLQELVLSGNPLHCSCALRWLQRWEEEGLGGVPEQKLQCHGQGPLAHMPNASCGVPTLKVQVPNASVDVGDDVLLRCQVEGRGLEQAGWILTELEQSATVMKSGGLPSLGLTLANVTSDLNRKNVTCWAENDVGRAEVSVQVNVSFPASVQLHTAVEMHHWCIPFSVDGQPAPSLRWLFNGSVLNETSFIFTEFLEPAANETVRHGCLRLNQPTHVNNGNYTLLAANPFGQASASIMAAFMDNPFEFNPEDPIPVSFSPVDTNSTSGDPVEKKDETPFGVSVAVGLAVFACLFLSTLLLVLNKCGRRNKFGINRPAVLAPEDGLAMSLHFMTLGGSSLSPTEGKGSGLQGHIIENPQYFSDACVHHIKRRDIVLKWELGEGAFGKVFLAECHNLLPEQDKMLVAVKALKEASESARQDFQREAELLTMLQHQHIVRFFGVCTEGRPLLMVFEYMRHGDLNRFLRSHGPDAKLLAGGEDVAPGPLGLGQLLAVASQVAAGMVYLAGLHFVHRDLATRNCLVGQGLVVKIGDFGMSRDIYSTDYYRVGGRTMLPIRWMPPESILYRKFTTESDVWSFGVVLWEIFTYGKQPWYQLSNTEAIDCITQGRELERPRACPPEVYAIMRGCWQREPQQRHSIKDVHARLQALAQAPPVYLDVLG
T2 sequence (P04629 33-423 limits assumed): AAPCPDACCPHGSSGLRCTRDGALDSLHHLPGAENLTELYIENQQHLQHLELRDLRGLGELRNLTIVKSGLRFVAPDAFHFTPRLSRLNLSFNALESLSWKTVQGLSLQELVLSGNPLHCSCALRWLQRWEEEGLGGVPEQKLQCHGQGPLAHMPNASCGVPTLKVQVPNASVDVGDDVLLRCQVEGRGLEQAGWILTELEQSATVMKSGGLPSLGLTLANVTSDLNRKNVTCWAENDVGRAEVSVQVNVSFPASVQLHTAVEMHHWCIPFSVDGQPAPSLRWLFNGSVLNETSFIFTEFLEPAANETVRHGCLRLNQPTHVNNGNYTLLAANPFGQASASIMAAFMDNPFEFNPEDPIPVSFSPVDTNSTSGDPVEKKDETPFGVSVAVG
T3 sequence (P04629 33-423 limits assumed): as above
T5 sequence (Q3UFB7 34-420 limits assumed): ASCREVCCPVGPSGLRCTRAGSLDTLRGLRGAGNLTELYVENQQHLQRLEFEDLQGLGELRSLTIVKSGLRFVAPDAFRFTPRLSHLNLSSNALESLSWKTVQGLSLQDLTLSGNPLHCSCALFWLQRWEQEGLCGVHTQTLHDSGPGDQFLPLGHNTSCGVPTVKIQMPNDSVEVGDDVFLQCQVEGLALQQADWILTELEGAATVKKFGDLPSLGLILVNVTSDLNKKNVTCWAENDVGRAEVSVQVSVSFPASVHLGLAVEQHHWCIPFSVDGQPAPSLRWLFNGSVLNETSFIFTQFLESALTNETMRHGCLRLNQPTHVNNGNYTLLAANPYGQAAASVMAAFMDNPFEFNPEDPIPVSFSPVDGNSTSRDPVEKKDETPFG
T4 sequence (Q3UFB7 34-799): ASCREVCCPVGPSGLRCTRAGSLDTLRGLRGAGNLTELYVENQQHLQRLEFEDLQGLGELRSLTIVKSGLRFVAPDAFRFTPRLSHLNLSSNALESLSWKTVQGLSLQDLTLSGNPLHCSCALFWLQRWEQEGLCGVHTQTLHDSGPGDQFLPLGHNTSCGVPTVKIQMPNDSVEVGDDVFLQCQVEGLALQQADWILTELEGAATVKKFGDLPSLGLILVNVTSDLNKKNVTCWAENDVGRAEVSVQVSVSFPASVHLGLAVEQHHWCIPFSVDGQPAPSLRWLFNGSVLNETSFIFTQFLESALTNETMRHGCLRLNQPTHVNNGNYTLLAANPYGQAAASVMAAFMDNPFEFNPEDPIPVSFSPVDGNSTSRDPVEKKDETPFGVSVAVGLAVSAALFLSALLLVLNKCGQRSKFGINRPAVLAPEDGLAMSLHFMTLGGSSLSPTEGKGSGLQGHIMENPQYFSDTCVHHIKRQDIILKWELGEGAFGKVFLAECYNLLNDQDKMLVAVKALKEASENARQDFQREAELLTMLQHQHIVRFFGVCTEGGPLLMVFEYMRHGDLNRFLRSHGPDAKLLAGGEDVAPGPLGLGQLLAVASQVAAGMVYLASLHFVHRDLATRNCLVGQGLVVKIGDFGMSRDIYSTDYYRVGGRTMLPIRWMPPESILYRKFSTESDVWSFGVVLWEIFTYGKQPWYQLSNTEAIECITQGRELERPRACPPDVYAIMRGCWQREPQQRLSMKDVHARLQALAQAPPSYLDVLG

B1: 27H3 chimeric antibody (antibody, human IgG4 S228P, kappa, F234A L235A, V domains shown)
VH: QVQLQQSGAELMKPGASVKISCKTTGYRFSSYWIEWVKQRPGHGLEWLGEILPGRGIINYNENFRGKATFTADTSSNTAYVQLSSLTSEDSAVYFCARTDPPYFGVWGAGTTVTVSS
VL: QAVVTQESALTTSPGETVTLTCRSSTGAVTISNYANWVQEKPDHLFTGLIGGTNNRPPGVPARFSGSLIGDKAALTITGAQTEDEAIYFCVLWYSNHWVFGGGTKLTVLR
notes: expressed in CHO cells
As usually defined, the EC50 is the concentration giving half of the maximal effect. By Kd is commonly meant the equilibrium constant for the complex coming apart. Usually koff stands for the first-order rate constant of dissociation. Broadly, the kon is the rate constant with which the complex forms. A low value points to slow association. What is called IC50 is the concentration that inhibits the measured activity by half. As to B1, the EC50 in assay [1] turned out to be 0.0447 µg/mL. Moreover, in assay [2], the OD450 was about 3 OD450. Also, the “IC50; p-TrkA level by AlphaLISA in NGF-stimulated NIH3T3-TrkA stable cell line” value (“IC50; p-TrkA level by AlphaLISA” for short) in [3] came out at 0.0437 µg/mL. Besides, in assay [4], the Kd worked out at 178 pM, the koff amounted to 0.000279 s⁻¹ and the kon is 1.57e+06 M⁻¹ s⁻¹. The EC50 in [5] is under 1.5 µg/mL. In assay [6], the IC50 came out at 0.11 µg/mL. In addition, the IC50 in assay [7] is 0.369 µg/mL.

B2: 23E12 chimeric antibody (antibody, human IgG4 S228P, kappa, F234A L235A, V domains shown)
VH: QVQLQQSGAELVRPGTSVKISCKASGYAFTNYWLGWMKQRPGHGLEWIGDFYPRTGNTFYNENFKGKVTLTADKSSNTAYMQLSSLTSEDSAVYLCARAGTGFDYWGQGTTLTVSS
VL: SIVMTQSPKSMSMSVGERVTLSCKASENVGGYVSWYQQKPDQSPKLLIYGASSRHTGVPDRFTGSGSETDFTLTISSVQAEDLAAYHCGQNYIYPFTFGGGTKLEIKR
notes: expressed in CHO cells
On to B2, for which the EC50 in assay [1] was 0.0443 µg/mL; in assay [8] it was 0.0801 µg/mL; in [5] it was under 1.5 µg/mL; in assay [9] it was 0.0208 µg/mL. Besides, the OD450 in assay [2] was about 3 OD450. Moreover, the “IC50; p-TrkA level by AlphaLISA” value in assay [3] is 0.0537 µg/mL. In assay [4], this molecule showed a Kd of 57 pM. In [4], this molecule showed a koff of 0.000109 s⁻¹. Moreover, the kon in assay [4] came to 1.9e+06 M⁻¹ s⁻¹. In addition, the IC50 in assay [10] came to 0.0515 µg/mL; in assay [6] it was 0.213 µg/mL; in [7] it was 0.426 µg/mL.

B3: 4H4 chimeric antibody (antibody, human IgG4 S228P, kappa, F234A L235A, V domains shown)
VH: EVQLQQSGPELVKPGASMKISCKASGYSFTGYTMNWVKQSHGKNLEWIGLINPYNGGTRYNQKFKGKATLTVDKSSSTAYMELLSLTSEDSAVYYCASSSYRNDGNWYFDVWGAGTTVTVSS
VL: DIVMTQSPAIMSASPGEKVTMTCSASSSVSYMHWYQQKSGTSPKRWIYDTSKLASGVPARFSGSGSGTSYSLTISSMETEDAATYYCQQWSSNPPTFGGGTKLELKR
notes: expressed in CHO cells
Take B3: the EC50 in assay [1] came out at 0.211 µg/mL. The same molecule showed an OD450 in assay [2] of about 3 OD450. The “IC50; p-TrkA level by AlphaLISA” value in assay [3] is 0.129 µg/mL. In assay [4], this molecule showed a Kd of 1680 pM, a koff of 0.000234 s⁻¹ and a kon of 139000 M⁻¹ s⁻¹. Besides, the EC50 in assay [5] is under 1.5 µg/mL. The IC50 in [6] was found to be 0.551 µg/mL. Moreover, the IC50 in assay [7] was found to be 2.04 µg/mL.

B4: 21E5 chimeric antibody (antibody, human IgG4 S228P, kappa, F234A L235A, V domains shown)
VH: QVQLQQSGAELMKPGASMKISCKATGYTFSTYWIEWVKQRPGHGLEWIGENLPGRHITNYNEKFKGKATFTADTSSNTAYMQLSSLTSEDSAVYYCARGRGTYYFDYWGQGTPLTVSS
VL: DIVMTQAAFSTPVTLGTSASISCRSSQSLLHSNGITYLYWYLQKPGQSPQLLIYQMSNLASGVPDRFSSSGSGTDFTLRISRVEAEDVGVYYCAQNLEFPFTFGSGTKLEIKR
notes: expressed in CHO cells
In the case of B4, the figures for the EC50 in assay [1], in [5] and in [9] were 0.0575 µg/mL, under 1.5 µg/mL and 0.0954 µg/mL, respectively. This molecule returned an OD450 in [2] of about 3 OD450. Besides, the “IC50; p-TrkA level by AlphaLISA” value in [3] was determined as 0.0856 µg/mL. The molecule further had a Kd in assay [4] of 173 pM. Further, the koff in assay [4] came out at 0.000175 s⁻¹. In assay [4], this molecule yielded an on-rate constant (kon) of 1.01e+06 M⁻¹ s⁻¹. Besides, the IC50 in assay [6] turned out to be 0.294 µg/mL; in assay [7] it was 0.547 µg/mL.
